± gives the standard deviation of the averaged measurements.
Assay: total protein half-life in vivo (active degradation + dilution); higher = more stable protein
[1] = E. coli NCM3722 delta-clpP delta-lon delta-hslV, growth: N-lim chemostat, doubling time 6 h
[2] = E. coli NCM3722 delta-clpP, growth: N-lim chemostat, doubling time 6 h
[3] = E. coli NCM3722 delta-hslV, growth: N-lim chemostat, doubling time 6 h
[4] = E. coli NCM3722 delta-lon, growth: N-lim chemostat, doubling time 6 h
[5] = E. coli NCM3722 delta-smpB, growth: N-lim chemostat, doubling time 6 h
[6] = wild type E. coli NCM3722, growth: C-lim chemostat, doubling time 3 h
[7] = wild type E. coli NCM3722, growth: C-lim chemostat, doubling time 6 h
[8] = wild type E. coli NCM3722, growth: C-lim chemostat, doubling time 12 h
[9] = wild type E. coli NCM3722, growth: N-lim chemostat, doubling time 6 h
[10] = wild type E. coli NCM3722, growth: N-lim chemostat, doubling time 12 h
[11] = wild type E. coli NCM3722, growth: P-lim chemostat, doubling time 6 h
[12] = wild type E. coli NCM3722, growth: P-lim chemostat, doubling time 12 h

Row | Sequence | total protein half-life in vivo [1] | total protein half-life in vivo [2] | total protein half-life in vivo [3] | total protein half-life in vivo [4] | total protein half-life in vivo [5] | total protein half-life in vivo [6] | total protein half-life in vivo [7] | total protein half-life in vivo [8] | total protein half-life in vivo [9] | total protein half-life in vivo [10] | total protein half-life in vivo [11] | total protein half-life in vivo [12]
1 | MMVIRPVERSDVSALMQLASKTGGGLTSLPANEATLSARIERAIKTWQGELPKSEQGYVFVLEDSETGTVAGICAIEVAVGLNDPWYNYRVGTLVHASKELNVYNALPTLFLSNDHTGSSELCTLFLDPDWRKEGNGYLLSKSRFMFMAAFRDKFNDKVVAEMRGVIDEHGYSPFWQSLGKRFFSMDFSRADFLCGTGQKAFIAELMPKHPIYTHFLSQEAQDVIGQVHPQTAPARAVLEKEGFRYRNYIDIFDGGPTLECDIDRVRAIRKSRLVEVAEGQPAQGDFPACLVANENYHHFRVVLVRTDPATERLILTAAQLDALKCHAGDRVRLVRLCAEEKTA [P0AE37] | 5.43 ± 0.59 h | 2.85 ± 0.19 h | 2.96 ± 0.92 h | 2.88 ± 0.041 h | 2.78 ± 0.33 h | 2.58 ± 0.12 h | 4.56 ± 0.31 h | 9.68 ± 2.2 h | 2.452 ± 0.0032 h | 3.22 ± 0.69 h | 4.07 ± 0.25 h | 9.08 ± 0.78 h
2 | MMYHIPGVLSPQDVARFREQLEQAEWVDGRVTTGAQGAQVKNNQQVDTRSTLYAALQNEVLNAVNQHALFFAAALPRTLSTPLFNRYQNNETYGFHVDGAVRSHPQNGWMRTDLSATLFLSDPQSYDGGELVVNDTFGQHRVKLPAGDLVLYPSSSLHCVTPVTRGVRVASFMWIQSMIRDDKKRAMLFELDNNIQSLKSRYGESEEILSLLNLYHNLLREWSEI | 4.14 ± 0.34 h | 2.79 h | 2.86 h | 3.12 ± 0.055 h | 2.31 ± 0.3 h | 3 ± 0.17 h | 4.856 ± 0.037 h | 6.39 h | – | 4.16 h | 5.85 ± 0.63 h | 11.4 ± 1.4 h
3 | MNAIWIAVAAVSLLGLAFGAILGYASRRFAVEDDPVVEKIDEILPQSQCGQCGYPGCRPYAEAISCNGEKINRCAPGGEAVMLKIAELLNVEPQPLDGEAQEITPARMVAVIDENNCIGCTKCIQACPVDAIVGATRAMHTVMSDLCTGCNLCVDPCPTHCISLQPVAETPDSWKWDLNTIPVRIIPVEHHA | 2.26 ± 0.093 h | 1.52 h | – | – | 0.89 h | – | 0.945 h | – | – | – | – | 1.92 ± 0.49 h
4 | MNALLSNPFKERLRKGEVQIGLWLSSTTAYMAEIAATSGYDWLLIDGEHAPNTIQDLYHQLQAVAPYASQPVIRPVEGSKPLIKQVLDIGAQTLLIPMVDTAEQARQVVSATRYPPYGERGVGASVARAARWGRIENYMAQVNDSLCLLVQVESKTALDNLDEILDVEGIDGVFIGPADLSASLGYPDNAGHPEVQRIIETSIRRIRAAGKAAGFLAVAPDMAQQCLAWGANFVAVGVDTMLYSDALDQRLAMFKSGKNGPRIKGSY | – | 2.69 ± 0.27 h | – | – | 2.17 h | 2.74 h | 4.08 h | 6.62 ± 0.94 h | – | 3.25 h | – | –
5 | MNATAAQTKSLEWLNRLRANPKIPLIVAGSAAVAVMVALILWAKAPDYRTLFSNLSDQDGGAIVSQLTQMNIPYRFSEASGAIEVPADKVHELRLRLAQQGLPKGGAVGFELLDQEKFGISQFSEQVNYQRALEGELSRTIETIGPVKGARVHLAMPKPSLFVREQKSPSASVTVNLLPGRALDEGQISAIVHLVSSAVAGLPPGNVTLVDQGGHLLTQSNTSGRDLNDAQLKYASDVEGRIQRRIEAILSPIVGNGNIHAQVTAQLDFASKEQTEEQYRPNGDESHAALRSRQLNESEQSGSGYPGGVPGALSNQPAPANNAPISTPPANQNNRQQQASTTSNSGPRSTQRNETSNYEVDRTIRHTKMNVGDVQRLSVAVVVNYKTLPDGKPLPLSNEQMKQIEDLTREAMGFSEKRGDSLNVVNSPFNSSDESGGELPFWQQQAFIDQLLAAGRWLLVLLVAWLLWRKAVRPQLTRRAEAMKAVQQQAQAREEVEDAVEVRLSKDEQLQQRRANQRLGAEVMSQRIREMSDNDPRVVALVIRQWINNDHE | 6.55 h | 6.44 h | – | – | – | 2.6 ± 0.24 h | 4.73 ± 0.44 h | 6.98 ± 0.67 h | – | – | – | –
6 | MNAVTEGRKVLLEIADLKVHFEIKDGKQWFWQPPKTLKAVDGVTLRLYEGETLGVVGESGCGKSTFARAIIGLVKATDGHVAWLGKELLGMKPDEWRAVRSDIQMIFQDPLASLNPRMTIGEIIAEPLRTYHPKMSRQEVRERVKAMMLKVGLLPNLINRYPHEFSGGQCQRIGIARALILEPKLIICDEPVSALDVSIQAQVVNLLQQLQREMGLSLIFIAHDLAVVKHISDRVLVMYLGHAVELGTYDEVYHNPLHPYTRALMSAVPIPDPDLEKNKTIQLLEGELPSPINPPSGCVFRTRCPIAGPECAKTRPVLEGSFRHSVSCLKVDPL | 5.54 ± 0.093 h | 5.82 ± 0.9 h | 4.61 ± 0.15 h | 4.14 ± 0.14 h | 6.25 ± 1.4 h | 2.65 ± 0.51 h | 6.13 ± 1.6 h | 10.3 ± 0.15 h | 5.03 ± 0.17 h | 8.26 ± 0.85 h | 5.69 ± 0.078 h | 12.15 ± 0.025 h
7 | MNAWEVNFDGLVGLTHHYAGLSFGNEASTRHRFQVSNPRLAAKQGLLKMKALADAGFPQAVIPPHERPFIPVLRQLGFSGSDEQVLEKVARQAPHWLSSVSSASPMWVANAATIAPSADTLDGKVHLTVANLNNKFHRSLEAPVTESLLKAIFNDEEKFSVHSALPQVALLGDEGAANHNRLGGHYGEPGMQLFVYGREEGNDTRPSRYPARQTREASEAVARLNQVNPQQVIFAQQNPDVIDQGVFHNDVIAVSNRQVLFCHQQAFARQSQLLANLRARVNGFMAIEVPATQVSVSDTVSTYLFNSQLLSRDDGSMMLVLPQECREHAGVWGYLNELLAADNPISELKVFDLRESMANGGGPACLRLRVVLTEEERRAVNPAVMMNDTLFNALNDWVDRYYRDRLTAADLADPQLLREGREALDVLSQLLNLGSVYPFQREGGGNG | 4.1 ± 0.25 h | 2.42 ± 0.32 h | 2.8 ± 0.29 h | 2.88 ± 0.035 h | 2.75 ± 0.14 h | 3.06 ± 0.31 h | 5.17 ± 0.51 h | 8.64 ± 0.32 h | 2.74 ± 0.35 h | 3.749 ± 0.0089 h | 5.69 ± 0.31 h | 9.79 ± 1.5 h
8 | MNAYELQALRHIFAMTIDECATWIAQTGDSESWRQWENGKCAIPDRVVEQLLAMRQQRKKHLHAIIEKINNRIGNNTMRFFPDLTAFQRVYPDGNFIDWKIYQSVAAELYAHDLERLC | 4.85 h | – | – | – | – | 2.05 h | 3.14 ± 0.49 h | 5.24 ± 0.46 h | – | – | – | –
